B1: HDV Ribozyme (parent)
chain: GGCCGGCAUGGUCCCAGCCUCCUCGCUGGCGCCGGCUGGGCAACAUUCCGAGGGGACCGUCCCCUCGGUAAUGGCGAAUGGGACCCA

Variants of: B1
Assay: self-cleavage, relative activity (ratio to wild type); higher = more cleavage; co-transcriptional

Row | Variant | self-cleavage
1 | G38A C75G | 0.0302
2 | G17U U72A | 0.119
3 | G59A C75G | 0.177
4 | C22G G55U | 0.0382
5 | G10C G74U | 0.166
6 | C21G G54A | 0.0496
7 | G11A A71C | 0.295
8 | C24G A70C | 0.0978
9 | C3A U72A | 0.07
10 | G29U G76C | 0.12
11 | U47G C48U | 1.02
12 | G31C C58U | 0.339
13 | C14G A71G | 0.712
14 | G17A U23A | 0.686
15 | C41A C58A | 0.831
16 | A16G U20A | 0.138
17 | G10A G80U | 0.145
18 | G6C C22U | 0.185
19 | C21A C61A | 0.0511
20 | G1A G10U | 0.153
21 | G5U A51U | 0.688
22 | C41U C66U | 1
23 | A51C A71G | 0.918
24 | C3G C24U | 0.196

Row | Variant | self-cleavage
25 | U23G A43C | 0.131
26 | G35C G67C | 0.0519
27 | U12A A56G | 0.196
28 | A43U A56U | 0.475
29 | C18U G39U | 0.0997
30 | C21U A78G | 0.155
31 | C32A A87C | 0.129
32 | U20G C64A | 0.178
33 | G10U C22G | 0.0623
34 | C58G U60A | 1.06
35 | C15G C64A | 0.538
36 | G25A A83G | 0.151
37 | C4U A70U | 0.554
38 | A42U C86U | 0.58
39 | C19U C63G | 0.0707
40 | U27A C61A | 0.906
41 | C19A A83G | 0.122
42 | G73C A78C | 0.0773
43 | C14U U60G | 0.772
44 | G11A C36U | 0.156
45 | G1A G34C | 0
46 | A77G G81U | 0.348
47 | U23A U72C | 0.332
48 | G1U A16C | 0.277

Row | Variant | self-cleavage
49 | G5U C86U | 0.554
50 | G28C G74C | 0.151
51 | C4A U12A | 0.0712
52 | U72A A78G | 0.504
53 | U20A G50U | 0
54 | C33G G82C | 0.0405
55 | U20C G31A | 0.0415
56 | C19A G68C | 0.149
57 | G54U A78U | 0.302
58 | G39C | 0.245
59 | C30G | 0.0914
60 | U20A A87G | 0.0831
61 | U9A G31A | 0.554
62 | A45C G59C | 0.696
63 | C22U G81C | 0.237
64 | C22U G81U | 0.04
65 | C15A G74A | 0.174
66 | G11U U72G | 0.145
67 | C26U A71G | 0.928
68 | G10A C21U | 0.0453
69 | C36G A51U | 0.0519
70 | C13U G55A | 0.702
71 | A8U G55A | 0.749
72 | C18G U79G | 0.133

Row | Variant | self-cleavage
73 | G5C G35C | 0.147
74 | U23A C66U | 0.943
75 | C36G G39U | 0.0652
76 | A42C C49U | 0.115
77 | C66A A87G | 0.898
78 | G59C C84A | 0.912
79 | G38U C41A | 0.407
80 | U20C U46A | 0.317
81 | G28U A56U | 0.0941
82 | C33G G76C | 0.229
83 | G1U G2A | 0.262
84 | C3G C49A | 0.736
85 | C26G G40A | 0.912
86 | C15A A87C | 0.654
87 | U72C G80U | 0.0791
88 | U27C C49G | 0.962
89 | G38U G82U | 0.129
90 | U20C A45C | 0
91 | G35C C66A | 0.253
92 | C62U G80C | 0.281
93 | G10C C21A | 0.0723
94 | C19U C30G | 0.0936
95 | G5C A77C | 0
96 | A8C C18G | 0.0875

Row | Variant | self-cleavage
97 | U46C G76A | 1.01
98 | G38U A42U | 0.261
99 | C13G G34A | 0.0536
100 | G29U C75A | 0.0639
101 | U12C A42G | 0.0831
102 | G17A G73C | 0.0615
103 | A42G U72C | 0.475
104 | G39A C86G | 0.534
105 | G67U G80A | 0.355
106 | G40A | 0.962
107 | G5C G40C | 0.256
108 | C13G C14U | 0.208
109 | G35A G82C | 0.266
110 | U65C C84G | 0.646
111 | C24G G59U | 0.147
112 | C44U A87U | 0.718
113 | A51C C85A | 0.755
114 | A16G G35U | 0.375
115 | G11U C48G | 0.212
116 | G1A G38C | 0.0405
117 | A16C G29A | 0.116
118 | G6A U69G | 0.689
119 | G1C G50A | 0.277
120 | A43C G73U | 0.604

Row | Variant | self-cleavage
121 | C41A C84G | 0.749
122 | C36U U47C | 0.467
123 | A56U C86U | 0.906
124 | G5A A8C | 0.0519
125 | G5A C84A | 0.172
126 | G54U G82U | 0.432
127 | U20G G28C | 0
128 | A8U G40U | 0.415
129 | C58U G81C | 0.31
130 | U23C U65G | 0.95
131 | G6C G50U | 0.17
132 | C63U A71C | 1.15
133 | U27G A71C | 0.7
134 | C4U U27C | 0.166
135 | G2A A77C | 0.0437
136 | G28C U79C | 0.155
137 | C41G U47G | 0.598
138 | G59C A71G | 0.831
139 | C44G A77C | 0.297
140 | C3A G34U | 0.109
141 | U27A G52C | 0.914
142 | U65C | 1.02
143 | C61U C62G | 0.694
144 | G53C U69A | 0.77

Row | Variant | self-cleavage
145 | A45C C85A | 0.437
146 | G31U G68U | 0.427
147 | A42U C85U | 0.541
148 | C18G A83C | 0.192
149 | A16G U47G | 1.14
150 | C15A G34A | 0.0723
151 | C15U G25U | 0.0875
152 | C57A A78U | 0.108
153 | G68U C86U | 1.05
154 | C64G G67C | 0.332
155 | G5U U69A | 0.262
156 | C3G G54A | 0.683
157 | G29C C75A | 0.138
158 | U23G C57G | 0.831
159 | C22A G54U | 0.317
160 | U60A U79C | 0.515
161 | U47A G54U | 0.91
162 | G1C U9C | 0
163 | C7G G54U | 0.219
164 | G10A C33G | 0.0767
165 | G17C A78G | 0.0536
166 | G25U G38C | 0.0554
167 | C33A G52A | 0.229

Reference: the RNAGym collection of RNA variant scans (doi:10.7554/elife.80360)
